# Experimental data: US20170037151A1
# Tests used:
# SYK pY323 (human) = SYK pY323 (human) (UniProt P43405); experiment: IHC pathology score, share of the 15 human DLBCL biopsies scored positive
# [1] = molecular target: endogenous pSYK (activated SYK, pSYK Y525/526) in stimulated human lymphoma/leukemia cells, xenografts and biopsies (human) (UniProt P43405); experiment: as above
# [2] = molecular target: endogenous pSYK (activated SYK, pSYK Y525/526) in stimulated human lymphoma/leukemia cells, xenografts and biopsies (human) (UniProt P43405); experiment: IHC, PHTX 95L xenograft untreated, Aperio positive pixel count
# [3] = molecular target: endogenous pSYK (activated SYK, pSYK Y525/526) in stimulated human lymphoma/leukemia cells, xenografts and biopsies (human) (UniProt P43405); experiment: IHC, PHTX95L xenograft, SYK inhibitor-treated mice, Aperio positive pixel count
# Total SYK (human) = Total SYK (human) (UniProt P43405); experiment: IHC pathology score, share of the 15 human DLBCL biopsies scored positive
substance,measurement,setting,value
Epitomics 2173 anti-SYK pY323 antibody,% Positive,SYK pY323 (human),40%
Epitomics 2175-1 anti-pSYK Y525/526 antibody,% Positive,[1],40%
same,Percent Positive Pixel per total Pixel,[2],8.21%
same,Percent Positive Pixel per total Pixel,[3],0.56%
Epitomics 1688-1 anti-hSYK (total SYK) antibody,% Positive,Total SYK (human),100%
